Our source for the K (rate constant of disulfide-bond formation, single-step fit), half-time of disulfide-bond formation and percent disulfide-bond formation values is article PMC6659671.

Experiment [1] has as its target HisBamA G781C (E. coli) (UniProt P0A940). Briefly: cross-linking; kinetics of intermolecular disulfide-bond formation in intact cells; 0.2 mM 4-DPS on ice for 0, 2, 5, 15, 30, 60 and 90 min; quantitated from αStrepII immunoblots. For orientation: In western blotting, separated proteins are transferred to a membrane and probed.
The target is the same in experiment [2]. Briefly: cross-linking.
The next experiment concerns the target HisBamA S425C (E. coli) (UniProt P0A940). Briefly: cross-linking.

In the experiment with HisBamA G781C (E. coli) [1], MBP−76EspP A1043C (from UniProt Q7BSW5) displayed a K (rate constant of disulfide-bond formation, single-step fit) of 0.038 min⁻¹ and a half-time of disulfide-bond formation of 18.2 min. Moreover, the percent disulfide-bond formation in the experiment with HisBamA G781C (E. coli) [2] was 42%.
On to MBP−76EspP Y1298C (from UniProt Q7BSW5), for which the percent disulfide-bond formation with HisBamA S425C (E. coli) turned out to be 28%.
